Laboratory results taken from the Human Domainome abundance scans (Beltran et al. 2025).
± gives the uncertainty stated by the source.

B1: E3 ubiquitin-protein ligase Midline-1, residues 172 to 214; numbered along this chain, O15344 (parent)
chain: GLMCLEHEDEKVNMYCVTDDQLICALCKLVGRHRDHQVAALSE

Variants of: B1
Experiment: abundance fitness (aPCA) (normalised: wild type 0, dead -1); higher = more abundant; growth selection in yeast, the domain comes from the species named
Details: Homo sapiens

Variant | abundance fitness
E8V | 0.072 ± 0.053
E8Y | -0.243 ± 0.1
E8T | 0.398 ± 0.12
E8S | 0.375 ± 0.058
E8W | -0.348 ± 0.076
K11P | -0.259 ± 0.18
K11R | -0.012 ± 0.052
K11N | 0.027 ± 0.14
K11E | 0.033 ± 0.07
K11C | 0.148 ± 0.081
K11Q | 0.158 ± 0.079
K11F | -0.132 ± 0.22
K11W | -0.288 ± 0.067
K11D | -0.258 ± 0.14
K11G | -0.186 ± 0.051
K11H | 0.19 ± 0.41
K11M | 0.096 ± 0.096
K11S | -0.07 ± 0.063
K11V | -0.259 ± 0.059
K11I | 0.284 ± 0.21
K11A | -0.107 ± 0.054
V17K | 0.444 ± 0.065
V17S | 0.174 ± 0.051
V17A | 0.172 ± 0.049

Variant | abundance fitness
V17C | 0.173 ± 0.072
V17Q | 0.275 ± 0.065
V17E | 0.135 ± 0.06
V17Y | -0.071 ± 0.16
V17N | 0.545 ± 0.22
V17L | -0.094 ± 0.061
V17G | 0.092 ± 0.045
V17H | 0.29 ± 0.095
V17I | 0.235 ± 0.12
V17R | 0.176 ± 0.048
V17T | -0.027 ± 0.069
V17D | 0.113 ± 0.067
V17W | -0.176 ± 0.07
D9S | 0.02 ± 0.059
D9E | -0.378 ± 0.087
D9R | 0.027 ± 0.049
D9Q | 0.116 ± 0.065
D9N | 0.636 ± 0.22
D9T | -0.24 ± 0.12
D9Y | -0.113 ± 0.22
D9W | -0.052 ± 0.055
D9F | 0.173 ± 0.11
D9L | 0.084 ± 0.054
D9K | -0.38 ± 0.1

Variant | abundance fitness
D9P | -0.088 ± 0.18
D9C | 0.13 ± 0.08
D9V | -0.086 ± 0.049
D9H | -0.107 ± 0.18
D9M | 0.246 ± 0.072
D9I | 0.042 ± 0.095
D9G | 0.031 ± 0.045
D9A | -0.418 ± 0.067
C16E | -0.185 ± 0.065
C16R | -0.469 ± 0.062
C16S | -0.14 ± 0.11
C16G | -0.291 ± 0.049
C16T | -0.351 ± 0.1
C16K | -0.298 ± 0.18
C16H | -0.215 ± 0.12
C16I | -0.127 ± 0.24
C16W | -1.19 ± 0.21
C16P | -0.289 ± 0.065
C16N | -0.183 ± 0.14
C16Q | -0.219 ± 0.076
C16Y | -0.624 ± 0.28
C16M | -0.674 ± 0.43
C16V | -0.725 ± 0.096
C16A | -0.569 ± 0.087

Variant | abundance fitness
T18P | -0.492 ± 0.14
T18L | -0.32 ± 0.066
T18R | -0.101 ± 0.057
T18W | -0.532 ± 0.094
T18D | -0.152 ± 0.079
T18V | -0.077 ± 0.064
T18N | -0.048 ± 0.45
T18Q | -0.073 ± 0.1
T18Y | -0.482 ± 0.23
T18C | -0.256 ± 0.1
T18K | -0.019 ± 0.063
T18M | -0.394 ± 0.15
E10V | -0.414 ± 0.059
E10L | -0.214 ± 0.061
E10A | -0.133 ± 0.059
E10P | -0.498 ± 0.19
E10K | 0.063 ± 0.087
E10T | -0.204 ± 0.15
E10C | -0.062 ± 0.074
E10W | -0.247 ± 0.062
E10G | -0.316 ± 0.047
E10S | -0.079 ± 0.098
E10F | -0.136 ± 0.16
E10Q | -0.181 ± 0.072

Variant | abundance fitness
E10R | -0.046 ± 0.049
E10H | 0.066 ± 0.16
E10M | -0.029 ± 0.097
E10N | 0.093 ± 0.21
E10D | -0.164 ± 0.12
N13T | -0.043 ± 0.11
N13Q | 0.005 ± 0.078
N13D | -0.071 ± 0.092
N13C | -0.13 ± 0.1
N13L | -0.254 ± 0.077
N13K | 0.04 ± 0.071
N13S | -0.345 ± 0.095
N13V | -0.396 ± 0.055
N13A | -0.146 ± 0.055
N13F | 0.354 ± 0.19
N13E | -0.084 ± 0.063
N13Y | -0.108 ± 0.16
N13R | -0.137 ± 0.049
N13G | -0.022 ± 0.045
N13P | -0.567 ± 0.28
M14Q | 0.242 ± 0.066
M14A | 0.043 ± 0.048
M14C | 0.137 ± 0.11
M14S | 0.267 ± 0.065

Variant | abundance fitness
M14R | 0.033 ± 0.055
M14F | -0.451 ± 0.49
M14H | -0.112 ± 0.3
M14G | 0.059 ± 0.045
M14V | -0.386 ± 0.064
M14E | 0.176 ± 0.055
M14K | 0.121 ± 0.21
M14D | 0.09 ± 0.12
M14T | 0.301 ± 0.084
M14P | -0.405 ± 0.075
M14N | -0.028 ± 0.18
M14L | -0.022 ± 0.055
M14W | -0.055 ± 0.056
Y15L | 0.014 ± 0.063
Y15M | -0.094 ± 0.093
Y15H | 0.151 ± 0.14
Y15A | 0.045 ± 0.051
Y15E | 0.001 ± 0.058
Y15C | 0.059 ± 0.072
Y15V | -0.014 ± 0.059
Y15R | 0.258 ± 0.047
Y15K | 0.28 ± 0.078
Y15Q | 0.315 ± 0.075
Y15S | -0.023 ± 0.061

Variant | abundance fitness
Y15G | -0.015 ± 0.046
Y15W | -0.089 ± 0.095
Y15N | -0.165 ± 0.13
Y15T | -0.288 ± 0.086
D19F | -0.218 ± 0.27
D19A | -0.928 ± 0.088
D19C | -0.175 ± 0.14
D19E | -0.012 ± 0.052
V12A | -0.208 ± 0.09
V12P | -0.51 ± 0.34
V12K | 0.319 ± 0.14
V12W | -0.251 ± 0.095
V12R | 0.024 ± 0.059
V12I | 0.093 ± 0.17
V12T | -0.149 ± 0.081
V12L | -0.233 ± 0.11
V12Q | 0.328 ± 0.2
V12F | 0.301 ± 0.3
V12M | -0.042 ± 0.12
V12Y | -0.02 ± 0.16
V12E | -0.122 ± 0.075
V12C | -0.231 ± 0.37
V12G | 0.026 ± 0.048
